Results taken from patent publication US20210238298A1.

How the values were obtained:
[1] = target: CTLA-4 (BMS, Orencia) (human) (UniProt P16410); test: cell-based or functional assay
[2] = target: CD137 chimera 1550 (1407): human CD137 with mouse domains 1, 2A and 2B (aa 24-86), on FreeStyle 293-F cells (human; mouse) (UniProt P20334); test: flow cytometry, 293-F transfectants
Sequence of UniProt P20334 (P20334 other isoform, or with tags, fused parts or gaps mutant limits assumed): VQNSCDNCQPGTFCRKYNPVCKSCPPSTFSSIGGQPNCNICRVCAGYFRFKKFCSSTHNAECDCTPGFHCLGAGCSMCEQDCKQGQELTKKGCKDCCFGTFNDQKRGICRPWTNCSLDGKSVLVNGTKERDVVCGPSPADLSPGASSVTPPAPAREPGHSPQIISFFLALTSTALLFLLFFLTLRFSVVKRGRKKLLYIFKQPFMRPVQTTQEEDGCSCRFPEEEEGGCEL

Sequence of CTLA-4 (BMS, Orencia) (human) (P16410 38-152 limits assumed): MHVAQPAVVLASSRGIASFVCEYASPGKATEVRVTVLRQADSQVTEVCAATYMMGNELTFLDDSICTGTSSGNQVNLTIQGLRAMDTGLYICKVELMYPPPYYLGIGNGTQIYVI

| Binder | Mean IL-2 level (pg/ml) induced at 1.5 nM (control) [1] [pg/mL] | relative binding (MFI sample/isotype control, normalised to full-length human CD137) [2] |
| --- | --- | --- |
| 1756/1757 (isotype control antibody fused to the 1040 CTLA4 binding region) (protein, part only; not given: Isotype control antibody chains, part only) APLKIQAYFNETADLPCQFANSQNLSLSELVVFWQDQENLVLNEVYLGKERFDSVDSKYMGRTSFDSDSWTLRLHNLQIKDKGRYQCIIHHKKPTGMINIHQMNSELSVLA | 1050 | – |
| anti-CD137 antibody 1204/1205 (antibody, IgG1, V domains shown) VH: EVQLLESGGGLVQPGGSLRLSCAASGFTFSSYYMGWVRQAPGKGLEWVSGIGSYYGYTGYADSVKGRFTISRDNSKNTLYLQMNSLRAEDTAVYYCARAYYDYNYYYAYFDYWGQGTLVTVSS VL: DIQMTQSPSSLSASVGDRVTITCRASQSISSYLNWYQQKPGKAPKLLIYAASSLQSGVPSRFSGSGSGTDFTLTISSLQPEDFATYYCQQSVPHYPFTFGQGTKLEIK | – | 0.07 |
